The supplement of paper PMC10567573

B1: KCNA4 (parent)
chain: YQLGEEALLKFREDEGFVREEEDR
B2: CASP6 (parent)
chain: TCADRDNLTRRFSDLGFEVKCFND

Variants of: B1
Assay: protein stability index of a GFP-peptide fusion (GPS, HEK-293T) (PSI 1-6); higher = more stable
Conditions: c terminus: a fixed tail appended
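Also: lentivirally expressed fusions sorted by FACS into six bins by GFP to DsRed ratio, PSI derived from sequencing read proportions per bin multiplied by bin number.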

| Variant | protein stability index |
| --- | --- |
| YQLGEEALLKFSEDEGFVREEEDR | 4.66 |
| YQLGEEALLKFREDEGFVREEEDD | 4.71 |
| WQLGEEALLKFREDEGFVREEEDR | 5.25 |
| TQLGEEALLKFREDEGFVREEEDR | 5.57 |
| YQLGEEALLKFREDEGFCREEEDR | 4.53 |
| YQLGEEALLKFREDEGFVREEEKR | 4.45 |
| YQLGEEALLKFREDEGFVREEEIR | 3.88 |
| YQLGEEALLKFREDEGFVREEERR | 4.39 |
| YQLGWEALLKFREDEGFVREEEDR | 1.63 |
| YQLGSEALLKFREDEGFVREEEDR | 4.38 |
| YQLGYEALLKFREDEGFVREEEDR | 3.21 |
| YQLGVEALLKFREDEGFVREEEDR | 3.86 |
| YQLGGEALLKFREDEGFVREEEDR | 3.87 |
| YQLGLEALLKFREDEGFVREEEDR | 3.83 |
| YQLGEEALLKAREDEGFVREEEDR | 4.72 |
| YQLGEEALLKFRFDEGFVREEEDR | 3.63 |
| YQLGEEALLKFREDEGFVKEEEDR | 4.05 |
| YQLGEEALLWFREDEGFVREEEDR | 2.25 |

| Variant | protein stability index |
| --- | --- |
| YQLGEIALLKFREDEGFVREEEDR | 2.93 |
| YQLGEHALLKFREDEGFVREEEDR | 4.33 |
| YQLGEEALLKFREDEKFVREEEDR | 3.93 |
| YQLGEEALLKFREIEGFVREEEDR | 4 |
| YQLGEEALLKFREGEGFVREEEDR | 3.45 |
| YQLGEEAKLKFREDEGFVREEEDR | 5.04 |
| YQLGEEAYLKFREDEGFVREEEDR | 5.21 |
| YQLGEEASLKFREDEGFVREEEDR | 5.47 |
| YQLGEEADLKFREDEGFVREEEDR | 5.6 |
| YQLQEEALLKFREDEGFVREEEDR | 5.08 |
| YQLDEEALLKFREDEGFVREEEDR | 4.43 |
| YQLGEEALLKFREDEGFVREEIDR | 4.03 |
| YQLGEEALLKFREDEGFVREENDR | 3.85 |
| YQLGEEALLKFREDEGFVREEMDR | 4.92 |
| YQVGEEALLKFREDEGFVREEEDR | 5.28 |
| YQLGEEALLKFREDEGFVREREDR | 3.05 |
| YQLGEEALLKFREDEGFVREIEDR | 4.07 |

Variants of: B2
Assay: as above
Conditions: c terminus: a fixed tail appended

| Variant | protein stability index |
| --- | --- |
| TCADRDNNTRRFSDLGFEVKCFND | 2.38 |
| TCADRDNTTRRFSDLGFEVKCFND | 3.49 |
| TCADRDNQTRRFSDLGFEVKCFND | 4.08 |
| TCADRDNATRRFSDLGFEVKCFND | 3.38 |
| TCADRDNETRRFSDLGFEVKCFND | 4.42 |
| TCADRDNVTRRFSDLGFEVKCFND | 3.37 |
| TCADRDNGTRRFSDLGFEVKCFND | 3.66 |
| TCADRDNKTRRFSDLGFEVKCFND | 3.6 |
| TCADRDNRTRRFSDLGFEVKCFND | 4.07 |
| TCADRDNITRRFSDLGFEVKCFND | 3.31 |
| TCADRDNMTRRFSDLGFEVKCFND | 3.03 |
| TCADRDNDTRRFSDLGFEVKCFND | 4.06 |
| TCADRDNSTRRFSDLGFEVKCFND | 3.82 |
| TCADRDNWTRRFSDLGFEVKCFND | 2.79 |
| TCADRDNYTRRFSDLGFEVKCFND | 2.91 |
| TCADRDNHTRRFSDLGFEVKCFND | 3.28 |
| TCADRDNCTRRFSDLGFEVKCFND | 2.99 |
| TCADRDNFTRRFSDLGFEVKCFND | 2.45 |
| TCADRDNPTRRFSDLGFEVKCFND | 3.52 |
| HCADRDNLTRRFSDLGFEVKCFND | 3.37 |

| Variant | protein stability index |
| --- | --- |
| QCADRDNLTRRFSDLGFEVKCFND | 4.05 |
| ACADRDNLTRRFSDLGFEVKCFND | 3.73 |
| SCADRDNLTRRFSDLGFEVKCFND | 3.28 |
| KCADRDNLTRRFSDLGFEVKCFND | 3.07 |
| VCADRDNLTRRFSDLGFEVKCFND | 2.92 |
| NCADRDNLTRRFSDLGFEVKCFND | 3.03 |
| WCADRDNLTRRFSDLGFEVKCFND | 2.32 |
| RCADRDNLTRRFSDLGFEVKCFND | 3.06 |
| MCADRDNLTRRFSDLGFEVKCFND | 3.58 |
| YCADRDNLTRRFSDLGFEVKCFND | 2.15 |
| PCADRDNLTRRFSDLGFEVKCFND | 3.67 |
| GCADRDNLTRRFSDLGFEVKCFND | 3.2 |
| CCADRDNLTRRFSDLGFEVKCFND | 2.88 |
| ECADRDNLTRRFSDLGFEVKCFND | 3.74 |
| FCADRDNLTRRFSDLGFEVKCFND | 2.18 |
| ICADRDNLTRRFSDLGFEVKCFND | 2.73 |
| DCADRDNLTRRFSDLGFEVKCFND | 4.37 |
| LCADRDNLTRRFSDLGFEVKCFND | 3.1 |
| TCADRDNLARRFSDLGFEVKCFND | 3.3 |
| TCADRDTLTRRFSDLGFEVKCFND | 3.52 |

| Variant | protein stability index |
| --- | --- |
| TCADRDVLTRRFSDLGFEVKCFND | 3.04 |
| TCADRDKLTRRFSDLGFEVKCFND | 3.06 |
| TCADRDYLTRRFSDLGFEVKCFND | 2.72 |
| TCADRDQLTRRFSDLGFEVKCFND | 2.92 |
| TCADRDRLTRRFSDLGFEVKCFND | 2.98 |
| TCADRDILTRRFSDLGFEVKCFND | 3.22 |
| TCADRDLLTRRFSDLGFEVKCFND | 2.98 |
| TCADRDWLTRRFSDLGFEVKCFND | 2.52 |
| TCADRDFLTRRFSDLGFEVKCFND | 2.78 |
| TCADRDCLTRRFSDLGFEVKCFND | 3.13 |
| TCADRDDLTRRFSDLGFEVKCFND | 3.41 |
| TCADRDALTRRFSDLGFEVKCFND | 2.89 |
| TCADRDGLTRRFSDLGFEVKCFND | 3.71 |
| TCADRDMLTRRFSDLGFEVKCFND | 3.35 |
| TCADRDPLTRRFSDLGFEVKCFND | 3.4 |
| TCADRDSLTRRFSDLGFEVKCFND | 3.51 |
| TCADRDHLTRRFSDLGFEVKCFND | 3.63 |
| TCADRDELTRRFSDLGFEVKCFND | 3.55 |
| TMADRDNLTRRFSDLGFEVKCFND | 3.38 |
